# Data from the DeepSol protein solubility set.
# Assay: soluble on expression in E. coli; label from the status in PepcDB or PDB records
row,Sequence,soluble on expression in E. coli
1,METRRRSSRLQQQTTSDLNAREEPQPSEPPVKRARGAKKNEAPSTAPMPPKTTKKSTKPSRKQGSPIEAELDEMGFELENEEEAEIVVQKSKKNGRKLVKIDENLRISAENGSKSSNFLEENRMEIDEKPGNLAKKSSKNGSRVVKSDEKSENLVQSVPKSTTNGSKVAIIEDDPEIRAENGVKSSKSDEKPDFSAQNGSKLAQNAPNRISRPRRSVTTAKKVSYVPSDDQLELSSSSSELESSSEDEDTEIRPKTGSKIAKKREKSFKISESESSSESPDDESEASEASEDPSIPGPSEPRKRRKIQRKSTLSSGGATTKDLHWPKCSKASIARKTGNPGSKNAAKKPAKSSLRMAQKQKPDQPWKKNLKDYETDRKLAKGERRMLEYRHVAHAYVARGKIEEITYDEAYKLHEMMKKAYFAGRSLLDAAVLDPVEFEKSQKNVKKSEKNDEKNTAGDSSSSEDEWEEMEHFQPPIIDDNIEVSIDHEGGGGDDGEEVVKDWWAIYLRQEINRKIREMWENTHKLLFCLLRGLELTTRLVVNVRAIPRRWDKTQQKELQNELSKFRELSRSRSTTPGEKSLEIQEKSGEKSQKPAKKGQKSEKKAAKKVVVEERNYWVEYWQPREKRWICVDPLHKSVDEPLSIHEHSASPISYVFAIDNKQGICEVSQRYAMDCVKQDFRRRRTNPKWVAWTLFLPPFAANSERKKWEMMQMREDLVKRPLPTVMSEYKNHPLYALEKDLLKFEAIYPPPATQKPLGQIRGHNVYPRSTVFTLQGENNWLKLARSVKIGEKPYKIVKARPDPRIPVEDREDKFLDVYGYWQTEKYRRPPLKNGKIPHNEYGNVYMFNENMCPLDCTYLKLSGLVQISRKLGKQCIPAVVGWAFDGGFTHPVIDGAIVLEKDAIDFINAWEKLESGRAEKEEKQRVEKIHENWKKLIKGMLRLAYVRKQFGHPAAEKPTKRQKIGGKTEEIEENEGGAGPPSSVDHITDNTEQITPMHGFSLDDFINKKK,soluble
2,METTFALLNFKESLCYIYPPTEPVRYVSSIVALNVHSPNGTGDWHSAKALSDRAYPEKFYIYGENQERNTNHLFGDNGIIDGTDRLNKMGYFPENIPVWLADHPRACVDYLYTAVLQTGSIGRVILDDWFPSDEDKQSVYDLLNQIEPHLNTQEWENLQLWKRKNPIM,not soluble
3,METTHSLTTDNAPTEDQPILSVTDLHMVSGTHLPELKIYAGLSLVHCGRENSATTLSMTLAGRMKPISGTIELKVQDSDKVLTTPRQLHKAVALAGVPELDSLERLVPVTAAVREQLAWSQPWYRRVPRDVTKSETFINAAKLLDLPNSKEFARQSIGDLDPLTRFRLRIALALIARPHTDLLIVDDIDQIRSLRLRADLLRELKNIAASIPVVAMSANDDVDKIADHEIHVAGALQRKQKAKA,not soluble
4,MEVKMPFVVFVKRSVRFPGKHSYMIGGKSLLEIIVSKLSNIGKVYVFTKDKDIICNGCSIEFDTTNGIITDSVLAAIDKFGTFFAVAGDMPLIKPELVSKMLSQYKGSPLFPRHMDGMLEPLFGIYTEDLYNALKEYLDKGGESLHAFLLTQPLQYYDIGSDDEVNFININYKSDIEKYRDLLVQLLEHHHHHH,soluble
5,MEVPVHPLSQDPTAAWREISKTQRVIKVTMKPPTTTVAPNKARVVCMSDTHSLTPYIKFDIPDGDIFIHAGDFTKCGQLEEVEEFNTWIGALPHRHKIVIAGNHELSFDRTFTHPFQKSKSHASSSKHTGMSILDDLPTLGNAKENLESAVQTQNVRDVLTNCRYLEDELLEIWGIQIYGSPWQPEFCRWAFNVPRGTACLDKWNQIPEGIDILVTHTPPVGHGDLCCSGVRAGCVELLSTVQQRVRPKYHVFGHVHEGYGITSDGRIIFVNASTCDINYLPNNAPIVFDVTLPPGFRKDLEHHHHHH,soluble
6,MEYWHYVETTSSGQPLLREGEKDIFIDQSVGLYHGKSKILQRQRGRIFLTSQRIIYIDDAKPTQNSLGLELDDLAYVNYSSGFLTRSPRLILFFKDPSSKDELGKSAETASADVVSTWVCPICMVSNETQGEFTKDTLPTPICINCGVPADYELTKSSINCSNAIDPNANPQNQFGVNSENICPACTFANHPQIGNCEICGHRLPNASKVRSKLNRLNFHDSRVHIELEKNSLARNKSSHSALSSSSSTGSSTEFVQLSFRKSDGVLFSQATERALENILTEKNKHIFNQNVVSVNGVDMRKGASSHEYNNEVPFIETKLSRIGISSLEKSRENQLLNNDILFNNALTDLNKLMSLATSIERLYKNSNITMKTKTLNLQDESTVNEPKTRRPLLILDREKFLNKELFLDEIAREIYEFTLSEFKDLNSDTNYMIITLVDLYAMYNKSMRIGTGLISPMEMREACERFEHLGLNELKLVKVNKRILCVTSEKFDVVKEKLVDLIGDNPGSDLLRLTQILSSNNSKSNWTLGILMEVLQNCVDEGDLLIDKQLSGIYYYKNSYWPSHI,soluble
7,MFAHPANTSAASDNVSKAKLLKMLNAERKENASKDQLIESLKNQLASGGSQKIMEFYRTSVEDLQTKVMRQETIIMEQSKTIEMLSIERSKSVKVHEDQINEMQEVMDKKVKQLEENYEERLKESGNESTASFDKESRDDSLEDFVEVSINEILETAESKRKLKERINHMETHCMTMLKETMEDNKLYSAQLKDQKKQFEVLQNEKAQWEKKEIQQTMELENLRLRLRDIVSLENLIL,not soluble
8,MFALPQAGDRRGEIIKVLLSNGWDYMNGLLTLGKVGEPQIPTPEVLTKILVELGPFYIKLGQLLSTRPDLLPPRYINALTALQSNVPPLPWSAIEDLLQREFPQPLGETFQEIESEPIAALEHHHHHH,not soluble
9,MFAMTSIAVIGGGKIGEALISGLVASGMSPKDIHVTNRNAERAQELKERYGVLTFLENIAAVDDVDMVFLCVKPQQVIPVVEEIADVVDNNTSTTIVSMAAGVTNAMIEESLAAGSPVIRVMPNTPMLVGKGMSVVAPGRYADEDTVASLTQLLEAVGSVEVIEESSMDAVVALSGSSPAYLFLMVEALIDAGVFLGLPRDKAKNLAVSSFAGAATMLEQTGEEPAVLRANVSSPGGTTIAAIREFEESGLRAAVYRAATAAATRNSSLG,not soluble
10,MFARSAQRFSDGDRLEVGGWPVRLKVDGRARRISLRVDRARSEIVALSPTPRRLNEAVAFAQEKAGWIAKQLAALPERMSLAPGGVLRLNDKPFRLEVGAGRARIDGDRIVAPDDANWGLKVIRLAKREALTVLTERTAIHAAALGRPVPSVAIADPKARWGSCRPATSRAPAAIRYSWRLILAPAVVADYVAAHECAHLIEANHGPRFWALCEQLIGDPTPHRAWLRAHAAELHAIGALEHHHHHH,not soluble
11,MFEEKASSPSGKMGGEEKPIGAGEEKQKEGGKKKNKEGSGDGGRAELNPWPEYIYTRLEMYNILKAEHDSILAEKAEKDSKPIKVTLPDGKQVDAESWKTTPYQIACGISQGLADNTVIAKVNNVVWDLDRPLEEDCTLELLKFEDEEAQAVYWHSSAHIMGEAMERVYGGCLCYGPPIENGFYYDMYLEEGGVSSNDFSSLEALCKKIIKEKQAFERLEVKKETLLAMFKYNKFKCRILNEKVNTPTTTVYRCGPLIDLCRGPHVRHTGKIKALKIHKNSSTYWEGKADMETLQRIYGISFPDPKMLKEWEKFQEEAKNRDHRKIGRDQELYFFHELSPGSCFFLPKGAYIYNALIEFIRSEYRKRGFQEVVTPNIFNSRLWMTSGHWQHYSENMFSFEVEKELFALKPMNCPGHCLMFDHRPRSWRELPLRLADFGVLHRNELSGALTGLTRVRRFQQDDAHIFCAMEQIEDEIKGCLDFLRTVYSVFGFSFKLNLSTRPEKFLGDIEVWDQAEKQLENSLNEFGEKWELNSGDGAFYGPKIDIQIKDAIGRYHQCATIQLDFQLPIRFNLTYVSHDGDDKKRPVIVHRAILGSVERMIAILTENYGGKWPFWLSPRQVMVVPVGPTCDEYAQKVRQQFHDAKFMADIDLDPGCTLNKKIRNAQLAQYNFILVVGEKEKISGTVNIRTRDNKVHGERTISETIERLQQLKEFRSKQAEEEF,soluble
12,MFEFEQLPNEMQLEVLKRTEFRTIQSMKTVSKRVQHFIQLYQRYMLPIPIRQMFVTPEKISFTLANSNEINTINHDDMDKYLRGAKVDLLWLEMNGSEDEPIEFLQKVIQKTNFTRIDCLKLGSSKVECDVTKLENCMASLVCAELIVDWRFRVPEDFFNELHVEKLTRLTIGNQESRNFYHPLSGDHFRKFRGDWLEIGQNRLRSSDISTFLKNWKLGSISWIEMYNIVISFPIPELLILLKNESCQKTPTTWKVSRDLDEGKEELEIGFFKSTNFSKQPSLVIRQLKILEYLW,not soluble
13,MFFLEHGKVRTFLTPTLRCPMEKTTTQELLAQAEKICAQRNVRLTPQRLEVLRLMSLQDGAISAYDLLDLLREAEPQAKPPTVYRALDFLLEQGFVHKVESTNSYVLCHLFDQPTHTSAMFICDRCGAVKEECAEGVEDIMHTLAAKMGFALRHNVIEAHGLCAACVEVEACRHPEQCQHDHSVQVKKKPR,not soluble
14,MFFRCCMKIVQIIGGLGNQMFQFAFYLALKEKYVNVKLDTSSFGAYTHNGFELDKVFHVEYLKASIRERIKLSYQGSEIWIRVLRKLLKRKKTEYVEPYLCFDENAISLSCDKYYIGYWQSYKYFTNIEAAIRGQFHFSKVLSDKNEFIKKQMQNSNSVSLHVRLGDYVNNPAYSNICTSAYYNKAINIIQSKVSEPKFFVFSDDTVWCKDHLKIPNCHIIDWNNKEESYWDMCLMTYCKHNIIANSSFSWWGAWLNTNPERIVIAPGKWINDDRVQVSDIIPSDWICVLEHHHHHH,not soluble
15,MFGFLRKSQPVPQPQEATSDTIATQHTSAPLSNDMMLLMAEEIPMLDSNSRVRVYEILEQYDGPTICSQEELPREIREMMDL,not soluble
16,MFHCKGLYMSDQNDKLKNLKTSSMDRRLSIAKASLLAGTRWATASATSMFSSEAEKEKKRKKAMTEQANYLVSEIGKLKGSIVKIGQMMALYGEHFLPEEITQALNTLNNQTVALAWPAIKAHLQEQLGSKLDDLIIDHEPIGTASLAQVHRATRKSDGLELVLKIQYPGVAEAIDSDMSLFKNMLKLTRMVPQTREFDQWFDEVREMMHREVSYDIEAATTRRFAERLKTDPRYAVPQIIDAYCTTKILCMTFERGVPINSPVMLSLPQERRNKLGEASLEIAVREIFEWGEMQTDPNFGNYLVRLGNGTDIQDKIVLLDFGAIRQFDEHLLSVARNLIRAGYNHSNEEMVRAMTGYSFFDSIPESIKPDMAKVFLLATEAFSCPENNPDMPTGLMDEDNRYDWKKSQLHSRVMQQASKSMASRYFSVPPKEFMFISRKFIGAYTFMTVIEAKTNVRRMISHFVKLEHHHHHH,not soluble
17,MFIKAERLLIRKFEFKDWEAVHEYTSDSDVMKYIPEGVFTEEDTRNFVNKNMGENAKNFPVILIGENILVGHIVFHKYFGEHTYEIGWVFNPKYFNKGYASEAAQATLKYGFKEMKLHRIIATCQPENTPSYRVMEKIGMRREGYFKKCIPHGNEWWDEYYYAILEEE,soluble
18,MFILKDVTYKDILHIPYLQIQKEKITCIIGESGSGKSTLLRMLNDLQSPTSGIIEYNGKLISDYPPIQLRRDVVMLGQTPPIFDGTIKDNLLMGLRLSEKPFPNDDILRSALKTISLEKNLEDNADSLSGGEKQRLAFARIVLMDPPVYLLDEPTSALDSDTERRVMKQFTTLAREKKKTVIFITHSQQLPEEIADDIIEISKANGATRKEVLSVEGRY,not soluble
19,MFILSKIADLVRIPPDQFHRDTISAITHQLNNKFANKIIPNVGLCITIYDLLTVEEGQLKPGDGSSYINVTFRAVVFKPFLGEIVTGWISKCTAEGIKVSLLGIFDDIFIPQNMLFEGCYYTPEESAWIWPMDEETKLYFDVNEKIRFRIEREVFVDVKPKSPKERELEERAQLENEIEGKNEETPQNEKPPAYALLGSCQTDGMGLVSWWEHHHHHH,soluble
20,MFIQTEPTPNPATLKFIPGRSVLDSGTLEFTDASQAARSPLAARLFDIDGVSGVFYGTDFVTVTKDKGEWQHLKPAILGAIMEHYMSGTPILADGKSDGEDGDDDEFYADADAETVEIIKDLIETRVRPAVANDGGDITFRGFKDGIVYLNMRGACAGCPSSTATLQHGIQNLLKHFVPEVVEVRPVT,not soluble
